Source: US20180273584A1 (REGENTS OF THE UNIVERSITY OF MICHIGAN, published 2018)
Primed or numbered codes have the meaning given here. Ends that are not written are not given here. Cy5.5 = Cy5.5: Cy5.5 fluorophore (fluorescent dye); Cy5.5″ = Cy5.5 fluorophore

How the values were obtained:
[1] = biological target: HER2 over expressed in mouse colonic neoplasia (CPC;Apc mice) (mouse) (UniProt P70424); assay: in vivo NIR fluorescence endoscopy, topical peptide, n=7 adenomas in mice, target-to-background ratio
[2] = biological target: T1, Human epidermal growth factor receptor 2 (HER2) (human, UniProt P04626 23-1255); assay: flow cytometry on HT29 cells, apparent dissociation constant, 0-200 nM peptide, 4 °C 1 h
T1 construct: whole, on cells; also called ErbB2
Description: We measured the apparent dissociation constant of the HER2 peptide reagent to HT29 cells as an assessment of binding affinity. KSP*-Cy5.5 was serially diluted in PBS at concentrations of 0, 5, 10, 25, 50, 100, and 200 nM. ˜105 HT29 cells were incubated with KSP*-Cy5.5 at 4° C. for 1 hour and washed with cold PBS. The mean fluorescence intensities were measured with flow cytometry (BD® LSRII, BD Biosciences). The equilibrium dissociation constant kd=1/ka was calculated by performing a least squares fit of the data to the non-linear equation I, (I0+Imaxka[X])/([…]). I0 and Imax are the initial and maximum fluorescence intensities, corresponding to no peptide reagent and at saturation, respectively, and [X] represents the concentration of the bound peptide reagent. Graphpad prism analysis software (Graphpad Software Inc, La Jolla, Calif.) was used to calculate kd and ka.
We evaluated the binding parameters of KSP*-Cy5.5 to HT29 cells using flow cytometry.

[3] = biological target: T2, HER2 over expressed in mouse colonic neoplasia (CPC;Apc mice) (mouse, UniProt P70424 23-1256); assay: fluorescence imaging of mouse colon after intravenous KSP*-Cy5.5, n=4 mice
T2 construct: whole, on cells; no isolated mouse HER2 was tested; also called mouse HER2

[4] = biological target: T2, HER2 over expressed in mouse colonic …; assay: in vivo NIR fluorescence endoscopy, topical peptide, n=15 adenomas in mice, target-to-background ratio
Description: Mouse imaging studies were performed with approval of the University of Michigan Committee on the Use and Care of Animals (UCUCA). The mice were housed in pathogen-free conditions and supplied water ad libitum under controlled conditions of humidity (50±10%), light (12/12 hour light/dark cycle) and temperature (25° C.). Anesthesia was induced and maintained via a nose cone with inhaled isoflurane mixed with oxygen at a concentration of 2-4% at a flow rate of ˜0.5 L/min. The colon was first rinsed with tap water to remove mucous and debris. White light illumination was used first to identify anatomic landmarks, including polyps, mucosal folds, colonic segment, and distance of endoscope tip from anus, to register the in vivo images with histology. […] During imaging, we recorded the 1) distance between the endoscope tip and the anus and 2) clockwise location of each region of high intensity. […]
We evaluated specific binding of KSP*-Cy5.5 to colonic adenomas that over express HER2 in CPC; Apc mice This mouse was genetically engineered to somatically delete an Apc allele under Cre regulation, and develops polypoid and flat adenomas spontaneously in the colon. […] Imaging was performed in vivo using a small animal endoscope that is sensitive to NIR fluorescence. […]

[5] = biological target: T1, Human epidermal growth factor receptor …; assay: confocal microscopy, 10 µM FITC-labeled peptide on Flo1-HER2 cells against Q-hTERT control cells
Description: Flo-1-Her2 and Q-hTERT cells were seeded with ˜7,500 cells in 12-well plates with 1.5 mm thick glass cover slides, and grown to ˜70% confluence. The cells were gently washed with cold PBS before adding the peptide. 10 μM of FITC-labeled peptide was added to each well and incubated at 4° C. for 1 hour. After incubation, the cells were washed 3× with PBS, fixed in ice-cold 4% PFA for 10 min, and washed 1× with PBS. Subsequently, the cells were embedded on microscope slides with ProLong Gold reagent containing DAPI (Invitrogen), and the slides where analyzed with a Leica TCS SP5 confocal microscope using 63× oil immersion objective (Leica Microsystems, Leider Lane IL). The FITC-labeled peptides and anti-HER2 antibody were tested in quadruplicate.
We attached a FITC label to each peptide, and imaged binding to Flo1-HER2 and Q-hTERT cells (control) using confocal microscopy. Western blot of these cells show difference in HER2 expression, FIG. 1B. We selected KSPNPRF based on the highest mean fluorescence intensity with binding to Flo1-HER2, FIG. 1C. From our model, this peptide binds to HER2 domain 3. […] The fluorescence emission peak occurs at 708 nm in the NIR spectrum. For both peptides, we achieved >98% purity with HPLC, and measured an experimental mass-to-charge (m/z) ratio on mass spectrometry of 1794.98, which agrees with expected values, FIG. 8A,B.

T2 sequence (P70424 23-1256): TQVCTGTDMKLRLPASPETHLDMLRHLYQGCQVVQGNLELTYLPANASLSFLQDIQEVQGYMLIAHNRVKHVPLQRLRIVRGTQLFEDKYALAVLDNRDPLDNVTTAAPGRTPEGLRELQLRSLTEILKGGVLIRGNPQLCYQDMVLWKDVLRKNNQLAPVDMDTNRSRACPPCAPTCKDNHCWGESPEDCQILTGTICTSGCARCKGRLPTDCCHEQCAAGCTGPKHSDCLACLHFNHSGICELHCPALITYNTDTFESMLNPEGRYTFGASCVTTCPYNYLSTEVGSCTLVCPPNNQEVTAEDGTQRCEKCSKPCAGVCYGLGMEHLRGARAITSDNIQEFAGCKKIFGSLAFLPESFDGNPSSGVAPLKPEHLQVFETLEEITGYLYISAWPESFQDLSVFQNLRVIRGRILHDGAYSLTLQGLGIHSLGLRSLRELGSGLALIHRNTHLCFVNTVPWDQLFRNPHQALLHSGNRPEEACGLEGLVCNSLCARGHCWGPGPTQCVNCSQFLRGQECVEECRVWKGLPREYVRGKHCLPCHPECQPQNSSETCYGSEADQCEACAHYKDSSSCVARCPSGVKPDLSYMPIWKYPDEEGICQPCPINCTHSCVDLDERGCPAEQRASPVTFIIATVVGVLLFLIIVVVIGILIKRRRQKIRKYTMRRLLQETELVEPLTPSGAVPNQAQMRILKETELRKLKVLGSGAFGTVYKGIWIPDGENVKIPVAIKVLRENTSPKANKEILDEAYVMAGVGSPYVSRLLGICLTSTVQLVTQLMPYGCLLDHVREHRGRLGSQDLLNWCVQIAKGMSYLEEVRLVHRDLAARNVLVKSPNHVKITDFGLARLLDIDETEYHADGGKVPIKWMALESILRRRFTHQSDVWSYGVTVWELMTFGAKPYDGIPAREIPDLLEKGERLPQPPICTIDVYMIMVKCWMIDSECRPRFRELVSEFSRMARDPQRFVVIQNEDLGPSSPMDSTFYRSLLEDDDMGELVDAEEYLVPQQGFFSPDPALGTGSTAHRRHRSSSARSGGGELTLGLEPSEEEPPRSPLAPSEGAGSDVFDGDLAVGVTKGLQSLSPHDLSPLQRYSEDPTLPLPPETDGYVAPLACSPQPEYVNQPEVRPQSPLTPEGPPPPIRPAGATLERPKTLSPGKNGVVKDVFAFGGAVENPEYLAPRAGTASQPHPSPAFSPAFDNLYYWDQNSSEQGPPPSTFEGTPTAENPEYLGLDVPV
HER2 over expressed in mouse colonic neoplasia (CPC;Apc mice) (mouse), sequence (P70424 23-1256): as above

Binder: PPSNFKRGGGSK(Cy5.5″)-NH2 [PPS*-Cy5.5 (scrambled control peptide PPSNFKR linked to Cy5.5 via GGGSK)]
- mean T/B ratio [1]: 1.46

B1: KSP*-Cy5.5 (KSPNPRF peptide labeled with Cy5.5 fluorophore via a GGGSK linker on the C-terminus) (peptide)
peptide: KSPNPRFGGGSK(Cy5.5)-NH2
notes: Synthetic L-amino-acid peptide, Fmoc solid-phase synthesis; also called HER2 peptide reagent; KSP*-Cy5.5 peptide reagent
- Kd [2]: 21 nM
- fold mean fluorescence intensity, adenomas against surrounding normal mucosa [3]: 5.03 fold
- mean T/B ratio [4]: 3.64

Binder: KSPNPRF (also: FITC label, site of attachment not given here, also called FITC-labeled peptide) [FITC-labeled KSPNPRF (PEP1)]
- binding result [5]: binds
